The text below walks through data of article PMC4865918, “Inhibition of PRL-2·CNNM3 Protein Complex Formation Decreases Breast Cancer Proliferation and Tumor Growth*” (The Journal of Biological Chemistry, 2016).

This assay has as its target T1, His-PRL-2 (human, UniProt Q12974 1-167).
T1 construct: human PRL-2 (PTP4A2), 19-kDa construct; also called recombinant PRL-2; 19-kDa PRL-2 construct; source: Escherichia coli BL21, purified
T1 sequence (looked up): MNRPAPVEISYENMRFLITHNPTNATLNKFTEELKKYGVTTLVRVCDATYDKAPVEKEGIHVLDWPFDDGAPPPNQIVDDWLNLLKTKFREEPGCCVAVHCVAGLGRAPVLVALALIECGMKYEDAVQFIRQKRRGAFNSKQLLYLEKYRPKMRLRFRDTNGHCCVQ
Kind of assay: pull-down; in vitro; 20 ng GST-CBS on glutathione-Sepharose beads, equimolar His-PRL-2 (~10 ng), 4 °C 1 h; 150 mM NaCl, 20 mM Tris, 1% Triton-X, 5 mM 2-mercaptoethanol; without inhibitor (control). Particulars: both partners purified.

B1: GST-CBS (Bateman module of human CNNM3, amino acids 302-452) (domain or fragment, UniProt Q8NE01 302-452, looked up)
chain: SDLSKGVLRCRTVEDVLTPLEDCFMLDASTVLDFGVLASIMQSGHTRIPVYEEERSNIVDMLYLKDLAFVDPEDCTPLSTITRFYNHPLHFVFNDTKLDAVLEEFKRGKSHLAIVQKVNNEGEGDPFYEVLGLVTLEDVIEEIIRSEILDE
notes: human CNNM3, Bateman module, amino acids 302-452; also called GST-2xCBS; CBS tandem domain of CNNM3; source: Escherichia coli BL21, purified
Consider B1, for which the binding result is given as “binds”.
